Assay results: patent US20250034212A1, “PEPTIDE” (PEPTIDREAM INC., priority 2021, published 2025)
Starred links: 1 amine or outer side, 2 acyl side, 3 side chain; linkers in the order of their positions; H or OH if unused. Positions of bridges follow the written chain, without caps; N, C: chain ends. Non-standard residues stand in square brackets, D forms with d. No end group written: not given here. *: point of attachment. HA‑tag = HA-tag attached to the G end of the C-terminal linker, CC(C)[C@H](NC(=O)[C@H](CC(=O)O)NC(=O)[C@H](Cc1ccc(O)cc1)NC(=O)[C@@H]1CCCN1C(=O)[C@H](Cc1ccc(O)cc1)N*)C(=O)N1CCC[C@H]1C(=O)N[C@@H](CC(=O)O)C(=O)N[C@@H](Cc1ccc(O)cc1)C(=O)N[C@@H](C)C(=O)O; KCOpipzaa = N6-(4-(carboxymethyl)piperazine-1-carbonyl)-L-lysine, O=C(NCCCC[C@H](N[*:1])C(=O)[*:2])N1CCN(CC(=O)[*:3])CC1; Phe(3-guanidino) = 3-[(aminoiminomethyl)amino]-L-phenylalanine, N=C(N)Nc1cccc(C[C@H](N[*:1])C(=O)[*:2])c1; Phe(4-guanidino) = N=C(N)Nc1ccc(C[C@H](N)C(=O)O)cc1; Trp(6-aza) = N[C@@H](Cc1c[nH]c2cnccc12)C(=O)O; Trp(7-aza) = N[C@@H](Cc1c[nH]c2ncccc12)C(=O)O; 1Nal = N[C@@H](Cc1cccc2ccccc12)C(=O)O; Gly(NCH2CH2Ph) = O=C(O)CNCCc1ccccc1; 3Pal = N[C@@H](Cc1cccnc1)C(=O)O; 4Pal = N[C@@H](Cc1ccncc1)C(=O)O

Experiments:
[1] = biological target: T1, recombinant human TGF-β1 (Homo sapiens, UniProt P01137); assay: ELISA of HA-tagged peptides with TGF-β1 beads; format: binding; details: for Activity of binding to TGF-β: relative value with binding of peptide TGFb1_061 (SEQ ID NO: 62) to TGF-β1 set to 100%, HA-tagged peptides, TGF-β1 beads ELISA
T1 construct: purchased R&D systems
T1 sequence (P01137 279-390 limits assumed): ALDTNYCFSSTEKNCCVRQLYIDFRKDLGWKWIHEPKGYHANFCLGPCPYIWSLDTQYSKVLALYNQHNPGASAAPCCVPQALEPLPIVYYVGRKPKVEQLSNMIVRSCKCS
Excerpt: In this Example, ELISA was used to evaluate the binding between TGF-β1 and each of various peptides consisting of the amino acid sequences set forth in SEQ ID NOs: 34-69 synthesized in Examples 6 and 7. An HA-tag was attached to the G end of the C-terminal linker of the peptide consisting of the amino acid sequence set forth in SEQ ID NOs: 34-69. As used herein, the “HA-tag” means the amino acid sequence of PEG10[…] (SEQ ID NO: 70).
The binding activity of each peptide to TGF-β1 was examined by ELISA using the peptide consisting of the amino acid sequence set forth in SEQ ID NOs: 34-69 having an HA-tag attached and TGF-β1 beads.
Recombinant human TGF-β1 (R&D Systems) was immobilized on Dynabead M-270 Carboxylic Acid (Thermo fisher scientific) to prepare TGF-β1 beads. The immobilization reaction was performed using the Amine Coupling kit (DOJINDO LABORATORIES).
TGF-β1 beads and each peptide having the HA-tag sequence attached at the C-terminus were reacted in PBS (PBS-T) containing 0.1% Tween 20 (NACALAI TESQUE, INC.) for 1 hour and then washed by PBS-T. To detect the peptide bound to the TGF-β1 beads, an anti-HA-tag mAb-HRP-DirecT (MBL) and the TGF-β1 beads were reacted in PBS-T containing 1% BSA for 30 min. After washing with PBST, a SureBlue TMB Microwell Peroxidase Substrate (Kirkegaard & Perry Laboratories) was added for coloration for 10 min. TMB stop solution (Kirkegaard & Perry Laboratories) was then added to stop the coloration reaction. An EnSpire (Perkin Elmer) was used to measure absorbance.
Note that the binding activity was expressed as a relative value when the ability of binding the peptide TGFb1_061 (SEQ ID NO: 62) to TGF-β1 was set to 100%.

[2] = biological target: T2, recombinant human TGF-β1 (R&D systems) (human, UniProt P01137 279-390); assay: SPR, TGF-β1 immobilised, single cycle kinetics
T2 construct: Bought protein; immobilised on a CM3 chip (SPR) or on Dynabeads (ELISA), added to cells in the SBE reporter assay; also called TGF-β1 beads
T2 sequence (P01137 279-390 limits assumed): as above
Procedure: Subsequently, 50 μL of 60 mM EDC solution (Global Life Science Technologies Japan Co., Ltd.) and 50 μL of 650 mM NHS solution (Global Life Science Technologies Japan Co., Ltd.) were mixed. Next, the reaction was carried out at a flow rate of 10 μL/min for 420 seconds. Then, 150 μL of 0.2 μM TGF-β solution diluted in 10 mM acetic acid solution (pH 5.0) was prepared and reacted at a flow rate of 10 μL/min for 420 seconds to immobilize TGF-β on the CM3 sensor chip. TGF-β was human-derived TGF-β1 or β2 (recombinant human TGF-β1, 2) and was obtained from R&D systems. After immobilization, capping was performed by reacting with 1.0 M ethanolamine aqueous solution (Global Life Science Technologies Japan Co., Ltd.) at a flow rate of […] for 420 seconds.
A liquid prepared by dissolving each peptide at 10 mM in DMSO solution was diluted with running buffer to prepare a peptide-dissolved solution at a final concentration of 10 μM. Subsequently, 50 nM, 25 nM, 12.5 nM, 5 nM, and 2.5 nM peptide solutions were prepared. Using the above samples, the kinetics of each peptide against TGF-β was obtained by SPR measurement.
The kinetics evaluation model was Single Cycle Kinetics, and curve fitting was performed using Biacore T200 Evaluation Software Version 3.0 (Global Life Science Technologies Japan Co., Ltd.). The binding of various peptides to TGF-β was evaluated by performing least-squares curve fitting on the obtained sensorgram to calculate the KD value.

[3] = biological target: T2, recombinant human TGF-β1 (R&D systems); assay: cell-based or functional assay

48 ({CH2CO}-F[1Nal]VVNVEDD[Gly(NCH2CH2Ph)]V[1Nal]YHVCG; thioether N-16; also: HA-tag) [compound 48]
Activity of binding to TGF-β [1]: 80%

49 ({CH2CO}-F[1Nal]VVNVYDD[Gly(NCH2CH2Ph)]V[1Nal][4Pal]HVCG; thioether N-16; also: HA-tag) [compound 49]
Activity of binding to TGF-β [1]: 80%

50 ({CH2CO}-F[1Nal]VVNVYDD[Gly(NCH2CH2Ph)]V[1Nal]YHQCG; thioether N-16; also: HA-tag) [compound 50]
Activity of binding to TGF-β [1]: 81%

51 ({CH2CO}-F[1Nal]VKNVYDD[Gly(NCH2CH2Ph)]V[1Nal]YHVCG; thioether N-16; also: HA-tag) [compound 51]
Activity of binding to TGF-β [1]: 84%

52 ({CH2CO}-F[Trp(6-aza)]VVNVYDD[Gly(NCH2CH2Ph)]V[1Nal]YHVCG; thioether N-16; also: HA-tag) [compound 52]
Activity of binding to TGF-β [1]: 85%

53 ({CH2CO}-F[1Nal]VVNVYDDKV[1Nal]YHVCG; thioether N-16; also: HA-tag) [compound 53]
Activity of binding to TGF-β [1]: 86%

54 ({CH2CO}-F[1Nal]VVNV[Phe(4-guanidino)]DD[Gly(NCH2CH2Ph)]V[1Nal]YHVCG; thioether N-16; also: HA-tag) [compound 54]
Activity of binding to TGF-β [1]: 87%

55 ({CH2CO}-F[1Nal]VVNVYDD[Gly(NCH2CH2Ph)]V[1Nal]YHECG; thioether N-16; also: HA-tag) [compound 55]
Activity of binding to TGF-β [1]: 89%

56 ({CH2CO}-FWVVNVYDD[Gly(NCH2CH2Ph)]V[1Nal]YHVCG; thioether N-16; also: HA-tag) [compound 56]
Activity of binding to TGF-β [1]: 90%

57 ({CH2CO}-F[1Nal]VVNVQDD[Gly(NCH2CH2Ph)]V[1Nal]YHVCG; thioether N-16; also: HA-tag) [compound 57]
Activity of binding to TGF-β [1]: 90%

58 ({CH2CO}-F[1Nal]VVNVYED[Gly(NCH2CH2Ph)]V[1Nal]YHVCG; thioether N-16; also: HA-tag) [compound 58]
Activity of binding to TGF-β [1]: 93%

59 ({CH2CO}-F[1Nal]VVNVYDD[Gly(NCH2CH2Ph)]V[1Nal][3Pal]HVCG; thioether N-16; also: HA-tag) [compound 59]
Activity of binding to TGF-β [1]: 95%

60 ({CH2CO}-F[1Nal]VVNVYDQ[Gly(NCH2CH2Ph)]V[1Nal]YHVCG; thioether N-16; also: HA-tag) [compound 60]
Activity of binding to TGF-β [1]: 95%

61 ({CH2CO}-F[1Nal]VVNVYKD[Gly(NCH2CH2Ph)]V[1Nal]YHVCG; thioether N-16; also: HA-tag) [compound 61]
Activity of binding to TGF-β [1]: 98%

62 ({CH2CO}-F[1Nal]VVNVYDD[Gly(NCH2CH2Ph)]V[1Nal]YHVCG; thioether N-16; also: HA-tag) [compound 62]
Activity of binding to TGF-β [1]: 100%

63 ({CH2CO}-F[1Nal]VVNVKDD[Gly(NCH2CH2Ph)]V[1Nal]YHVCG; thioether N-16; also: HA-tag) [compound 63]
Activity of binding to TGF-β [1]: 102%

64 ({CH2CO}-F[1Nal]VVNVYDK[Gly(NCH2CH2Ph)]V[1Nal]YHVCG; thioether N-16; also: HA-tag) [compound 64]
Activity of binding to TGF-β [1]: 102%

65 ({CH2CO}-F[1Nal]VVNV[Phe(3-guanidino)]DD[Gly(NCH2CH2Ph)]V[1Nal]YHVCG; thioether N-16; also: HA-tag) [compound 65]
Activity of binding to TGF-β [1]: 104%

66 ({CH2CO}-F[Trp(7-aza)]VVNVYDD[Gly(NCH2CH2Ph)]V[1Nal]YHVCG; thioether N-16; also: HA-tag) [compound 66]
Activity of binding to TGF-β [1]: 106%

67 ({CH2CO}-F[1Nal]VVNVYDE[Gly(NCH2CH2Ph)]V[1Nal]YHVCG; thioether N-16; also: HA-tag) [compound 67]
Activity of binding to TGF-β [1]: 116%

68 ({CH2CO}-F[1Nal]VVNV[4Pal]DD[Gly(NCH2CH2Ph)]V[1Nal]YHVCG; thioether N-16; also: HA-tag) [compound 68]
Activity of binding to TGF-β [1]: 119%

69 ({CH2CO}-F[1Nal]VVNV[3Pal]DD[Gly(NCH2CH2Ph)]V[1Nal]YHVCG; thioether N-16; also: HA-tag) [compound 69]
Activity of binding to TGF-β [1]: 140%

TGFb1_061: cyclic peptide of Table 4 with G linker and HA-tag; ELISA reference set to 100% ({CH2CO}-F[1Nal]VVNVYDD[Gly(NCH2CH2Ph)]V[1Nal]YHVCG-{HA‑tag}; thioether N-16)
activity of binding to TGF-β, relative value ([1]; ELISA, relative to TGFb1_061 (SEQ ID NO: 62) set to 100%, HA-tag attached): 100%

B1: TGFb1_001 (peptide)
peptide: {CH2CO}-F[1Nal]VVNVYDD[Gly(NCH2CH2Ph)]V[1Nal]YHVCG
modifications: thioether N-16
notes: cyclic peptide; C-terminal G is a linker
Kd [2]: 0.55 nM
SBE reporter % inhibition, peptide 0.075 nM [3]: 19.7%
SBE reporter % inhibition, peptide 0.75 nM [3]: 69.7%
SBE reporter % inhibition, peptide 7.5 nM [3]: 98.1%
SBE reporter % inhibition, peptide 75.0 nM [3]: 101%

B2: TGFb1_004 (peptide)
peptide: {CH2CO}-F[Trp(6-aza)]VVNVYDD[Gly(NCH2CH2Ph)]V[1Nal]YHVCG
modifications: thioether N-16
notes: as for B1
Kd [2]: 1.49 nM
SBE reporter % inhibition, peptide 0.075 nM [3]: 0%
SBE reporter % inhibition, peptide 0.75 nM [3]: 0.9%
SBE reporter % inhibition, peptide 7.5 nM [3]: 70.1%
SBE reporter % inhibition, peptide 75.0 nM [3]: 94.9%

B3: TGFb1_007 (peptide)
peptide: {CH2CO}-F[1Nal]VKNV[4Pal]DD[Gly(NCH2CH2Ph)]V[1Nal]YHVCG
modifications: thioether N-16; not fully specified (C-terminus)
notes: as for B1
Kd [2]: 2.7 nM
SBE reporter % inhibition, peptide 0.075 nM [3]: 0.1%
SBE reporter % inhibition, peptide 0.75 nM [3]: 37.5%
SBE reporter % inhibition, peptide 7.5 nM [3]: 83.5%
SBE reporter % inhibition, peptide 75.0 nM [3]: 96.7%

B4: TGFb1_010 (peptide)
peptide: {CH2CO}-F[1Nal]V[KCOpipzaa]NV[4Pal]DD[Gly(NCH2CH2Ph)]V[1Nal]YHVCG
modifications: thioether N-16; not fully specified (C-terminus)
notes: as for B1
Kd [2]: 0.9 nM
SBE reporter % inhibition, peptide 0.075 nM [3]: 2%
SBE reporter % inhibition, peptide 0.75 nM [3]: 63.8%
SBE reporter % inhibition, peptide 7.5 nM [3]: 97.9%
SBE reporter % inhibition, peptide 75.0 nM [3]: 99.9%

B5: TGFb1_005 (peptide)
peptide: {CH2CO}-F[Trp(7-aza)]VVNVYDD[Gly(NCH2CH2Ph)]V[1Nal]YHVCG
modifications: thioether N-16; not fully specified (C-terminus)
notes: as for B1
Kd [2]: 1.15 nM
SBE reporter % inhibition, peptide 0.075 nM [3]: 0.4%
SBE reporter % inhibition, peptide 0.75 nM [3]: 47%
SBE reporter % inhibition, peptide 7.5 nM [3]: 90.8%
SBE reporter % inhibition, peptide 75.0 nM [3]: 98.9%

B6: TGFb1_008 (peptide)
peptide: {CH2CO}-F[Trp(7-aza)]VVNV[4Pal]DD[Gly(NCH2CH2Ph)]V[1Nal]YHVCG
modifications: thioether N-16; not fully specified (C-terminus)
notes: as for B1
Kd [2]: 4.64 nM
SBE reporter % inhibition, peptide 0.075 nM [3]: 3.8%
SBE reporter % inhibition, peptide 0.75 nM [3]: 56.8%
SBE reporter % inhibition, peptide 7.5 nM [3]: 94.6%
SBE reporter % inhibition, peptide 75.0 nM [3]: 98.4%

{CH2CO}-F[1Nal]VVNVYDD[Gly(NCH2CH2Ph)]V[1Nal]YHVC (thioether N-16, cyclic peptide) [TGFb1_002]
Kd [2]: 0.46 nM
